One may read the Kd as the concentration at which binding is half-saturated.

Data set [1] addresses Human serine racemase (human) (UniProt Q9GZT4).
Data set [2] shares this target. Description: ITC; PSD-95 PDZ3 (600 uM, syringe) titrated into hSR (20 uM, cell); 25 °C, 50 mM HEPES pH 8.0; single-site model. In general terms: ITC needs no label: the signal is the heat of the interaction.
Data set [3] concerns the molecule itself. Description: cross-linking; 0.1% (w/v) glutaraldehyde, 10 min, room temperature, 50 mM HEPES pH 8.0; 15 uM hSR and 30 uM PSD-95 PDZ3, together or each alone; SDS-PAGE.

“Third PDZ domain of postsynaptic density protein 95 (domain or fragment)” had a hSR activity (beta-elimination of L-serine, LDH-coupled assay), 0.44 uM hSR with 500 uM PSD-95 PDZ3, in the absence of ATP in data set [1] of 22%. In data set [2], this molecule displayed a Kd of 82 µM.

B1: Human serine racemase (enzyme, UniProt Q9GZT4 1-340, looked up)
chain: MCAQYCISFADVEKAHINIRDSIHLTPVLTSSILNQLTGRNLFFKCELFQKTGSFKIRGALNAVRSLVPDALERKPKAVVTHSSGNHGQALTYAAKLEGIPAYIVVPQTAPDCKKLAIQAYGASIVYCEPSDESRENVAKRVTEETEGIMVHPNQEPAVIAGQGTIALEVLNQVPLVDALVVPVGGGGMLAGIAITVKALKPSVKVYAAEPSNADDCYQSKLKGKLMPNLYPPETIADGVKSSIGLNTWPIIRDLVDDIFTVTEDEIKCATQLVWERMKLLIEPTAGVGVAAVLSQHFQTVSPEVKNICIVLSGGNVDLTSSITWVKQAERPASYQSVSV
notes: human serine racemase (EC 5.1.1.18), PLP-dependent homodimer; monomer 38 kDa; also called hSR; SR; source: E. coli BL21 CodonPlus (DE3)-RIL co-expressing GroEL and GroES, purified (TALON resin); not shown: His6, N-terminal, kept
As to B1, the binding result in data set [3] is listed as “binds”.

These data come from paper PMC9105370, “Human Serine Racemase Weakly Binds the Third PDZ Domain of PSD-95” (International Journal of Molecular Sciences, 2022).
